Target: endogenous MDM2 of SH-SY5Y cells (human (endogenous in SH-SY5Y)) (UniProt Q00987)
Test: AlphaScreen or HTRF; AlphaLISA of extracts of SH-SY5Y cells (MG132), endogenous proteins; D1V2Z-CaptSure acceptor beads and biotinylated HT7 on donor beads; background from Tau-KO SH-SY5Y cells

endogenous MDM2 of SH-SY5Y cells (human (endogenous in SH-SY5Y)), sequence (Q00987 whole entry): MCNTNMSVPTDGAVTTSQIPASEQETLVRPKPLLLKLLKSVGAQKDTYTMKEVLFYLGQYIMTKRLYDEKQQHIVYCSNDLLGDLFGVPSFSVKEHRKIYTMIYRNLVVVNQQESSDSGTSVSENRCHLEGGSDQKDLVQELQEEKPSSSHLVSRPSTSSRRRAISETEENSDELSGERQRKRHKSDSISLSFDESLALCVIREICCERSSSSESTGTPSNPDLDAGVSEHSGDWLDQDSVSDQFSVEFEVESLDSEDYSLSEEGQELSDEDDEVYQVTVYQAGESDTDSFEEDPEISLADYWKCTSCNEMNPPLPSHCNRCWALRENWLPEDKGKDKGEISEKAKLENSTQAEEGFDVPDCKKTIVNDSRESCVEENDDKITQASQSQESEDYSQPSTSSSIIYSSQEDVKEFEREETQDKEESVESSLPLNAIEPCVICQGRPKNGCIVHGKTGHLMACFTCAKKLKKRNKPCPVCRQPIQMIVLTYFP

## endogenous Tau of SH-SY5Y cells (from UniProt P10636 1-758) (natural protein)
  AlphaLISA signal, fold over background of Tau-KO SH-SY5Y cells: 2.7 fold

Reference: publication PMC10290082
